Measured values from PMC2747018.

Target: U1-A protein of the native human U1 snRNP (human (endogenous in HeLa)) (UniProt P09012)
Experiment: native MS; nano ESI-MS of the intact U1 snRNP purified from HeLa cells, 200 mM ammonium acetate, Q-ToF2, collision cell 100 V; the complex holds U1 snRNA

Sequence of UniProt P09012 (P09012 whole entry): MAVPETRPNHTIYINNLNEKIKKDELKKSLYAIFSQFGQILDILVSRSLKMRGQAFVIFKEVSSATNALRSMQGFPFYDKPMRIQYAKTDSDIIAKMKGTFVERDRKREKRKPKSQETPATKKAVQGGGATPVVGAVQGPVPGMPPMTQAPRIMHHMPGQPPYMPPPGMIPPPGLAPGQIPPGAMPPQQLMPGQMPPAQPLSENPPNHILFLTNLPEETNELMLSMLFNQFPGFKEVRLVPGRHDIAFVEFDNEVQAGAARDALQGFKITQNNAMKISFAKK

stoichiometry N | Substance
1 | Sm-D1 (from UniProt P62314 1-119) (natural protein; other documents disagree on this pair)
1 | Sm-F (from UniProt P62306 1-86) (natural protein; other documents disagree on this pair)
